Reference: patent US20250376519A1 (JIANGSU HENGRUI PHARMACEUTICALS, published 2025)

T1: human DLL3 (ACRO, DLL3-H52H4) (human, UniProt Q9NYJ7 27-492)
T1 construct: Bought
T1 sequence: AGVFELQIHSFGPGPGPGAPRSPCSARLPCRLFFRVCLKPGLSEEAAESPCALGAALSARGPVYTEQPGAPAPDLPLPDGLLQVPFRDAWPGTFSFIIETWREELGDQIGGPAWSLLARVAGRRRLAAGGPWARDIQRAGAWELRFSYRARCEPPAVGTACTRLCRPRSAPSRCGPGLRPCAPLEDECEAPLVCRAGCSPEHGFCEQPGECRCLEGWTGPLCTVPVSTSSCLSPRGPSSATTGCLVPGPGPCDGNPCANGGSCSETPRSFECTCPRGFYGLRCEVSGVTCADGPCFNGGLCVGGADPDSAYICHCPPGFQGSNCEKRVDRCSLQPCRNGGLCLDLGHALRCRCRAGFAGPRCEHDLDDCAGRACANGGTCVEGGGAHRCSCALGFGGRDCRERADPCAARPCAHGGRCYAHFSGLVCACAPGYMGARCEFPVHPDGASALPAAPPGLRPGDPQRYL


Target: T1, human DLL3 (ACRO, DLL3-H52H4)
Test: SPR Biacore 8K, Ab captured on Protein A
From the text: Test antibodies were affinity-captured with a Protein A biosensor chip (Cat. #29127556, Cytiva) for 18 seconds, and then the antigens human DLL3 (ACRO, DLL3-H52H4), cynomolgus monkey DLL3 (KACTUS, DLL-RM103), mouse DLL3 (KACTUS, DLL-MM103), human CD3D&3E (ACRO, CDD-H52W1), and monkey CD3D&3E (ACRO, CDD-C52W4) were allowed to flow through the surface of the chip for 180 seconds, followed by 600 seconds of dissociation. Reaction signals were detected in real time using a Biacore 8K (Cytiva) instrument to obtain association and dissociation curves. After the dissociation in each experimental cycle, the chip was washed and regenerated with a 10 mM glycine-hydrochloric acid solution (pH 1.5, Cat. #BR-1003-54, Cytiva). Data fitting was performed using a 1:1 Model.

Kd [nM]	koff [s⁻¹]	kon [M⁻¹ s⁻¹]	Binder
0.429	0.000682	1.59e+06	M98CH1 (antibody, human IgG1, kappa, V domains shown, chimeric antibody of mAb98, human IgG1/kappa; also called M98CHI) VH: EVQLVESGGGLVKPGGSLKLSCAASGFTFSDYGIHWVRQAPEKGLEWVAYISSGGYTIYYADTVKGRFTISRDNAKNTLFLQMTSLRSEDTAMYYCARGDYDDIFYTMDYWGQGTSVTVSS VL: DIQMTQTTSSLSASLGDRVTISCRASRDITKFLNWYQQKPDGTVKLLIYYTSRLHSGVPSRFSGSGSGTDYSLTISNLDQEDIATYFCQQGNTLPWTFGGGTKLDIKR
1.97	0.00307	1.56e+06	hu98L1H2 (antibody, human IgG1, kappa, V domains shown) VH: EVQLVESGGGLVQPGGSLRLSCAASGFTFSDYGIHWVRQAPGKGLEWVAYISSGGYTIYYADTVKGRFTISRDNAKNSLYLQMNSLRAEDTAVYYCARGDYEDIFYTMDYWGQGTTVTVSS VL: DIQMTQSPSSLSASVGDRVTITCRASRDITKFLNWYQQKPGKAPKLLIYYTSRLHSGVPSRFSGSGSGTDFTLTISSLQPEDFATYYCQQGNTLPWTFGGGTKVEIKR
0.681	0.000657	965000	M6CH1 (antibody, human IgG1, kappa, V domains shown, chimeric antibody of mAb6, human IgG1/kappa; also called M6CHI) VH: EVQLQQSGPVLVKPGASVKMSCKASGYTFTDYYMNWVKQSHGKSLEWIGIINPYSGVTIYNHKFKGKATLTVDKSSNTAYMELNSLTSEDSAVYYCARQDSLLDYAMDYWGQGTSVTVSS VL: DILMTQSPSSMSVSLGDTVSITCHASQGISGNMGWLQQKPGKSFKGLIYHGANLEDGVPSRFSGSGSGADYSLTISSLESEDFADYYCVQYAQFPYTFGGGTKLEIKR
2.81	0.00225	798000	hu6L1H1 (antibody, human IgG1, kappa, V domains shown) VH: EVQLVQSGAEVKKPGASVKVSCKASGYTFTDYYMNWVRQAPGQRLEWMGIINPYSGVTIYNHKFKGRVTITVDKSASTAYMELSSLRSEDTAVYYCARQDSLLDYAMDYWGQGTTVTVSS VL: DIQMTQSPSSLSASVGDRVTITCHASQGISGNMGWLQQKPGKAPKGLIYHGANLEDGVPSRFSGSGSGTDFTLTISSLQPEDFATYYCVQYAQFPYTFGGGTKVEIKR
0.424	0.000811	1.91e+06	hu6L4H6 (antibody, human IgG1, kappa, V domains shown) VH: EVQLVQSGSELKKPGASVKVSCKASGYTFTDYYMNWVRQAPGQGLEWMGIINPYSGVTIYNHKFKGRFVLSVDKSSNTAYLQISSLKAEDTAVYYCARQDSLLDYAMDYWGQGTTVTVSS VL: DIQMTQSPSSLSASVGDRVTITCHASQGISGNMGWLQQKPGKAPKGLIYHGANLEDGVPSRFSGSGSGADYTLTISSLQPEDFADYYCVQYAQFPYTFGGGTKVEIKR
2.01	0.00139	695000	hu6L2H3 (antibody, human IgG1, kappa, V domains shown) VH: EVQLVQSGAEVKKPGASVKVSCKASGYTFTDYYMNWVRQAPGQRLEWIGIINPYSGVTIYNHKFKGRATLTVDKSANTAYMELSSLRSEDTAVYYCARQDSLLDYAMDYWGQGTTVTVSS VL: DIQMTQSPSSLSASVGDRVTITCHASQGISGNMGWLQQKPGKAPKGLIYHGANLEDGVPSRFSGSGSGADYTLTISSLQPEDFATYYCVQYAQFPYTFGGGTKVEIKR
2.02	0.00144	715000	hu6L3H1 (antibody, human IgG1, kappa, V domains shown) VH: EVQLVQSGAEVKKPGASVKVSCKASGYTFTDYYMNWVRQAPGQRLEWMGIINPYSGVTIYNHKFKGRVTITVDKSASTAYMELSSLRSEDTAVYYCARQDSLLDYAMDYWGQGTTVTVSS VL: DIQMTQSPSSLSASVGDRVTITCHASQGISGNMGWLQQKPGKSFKGLIYHGANLEDGVPSRFSGSGSGADYTLTISSLQPEDFATYYCVQYAQFPYTFGGGTKVEIKR
2.19	0.00173	787000	hu6L1H2 (antibody, human IgG1, kappa, V domains shown) VH: EVQLVQSGAEVKKPGASVKVSCKASGYTFTDYYMNWVRQAPGQRLEWMGIINPYSGVTIYNHKFKGRVTLTVDKSANTAYMELSSLRSEDTAVYYCARQDSLLDYAMDYWGQGTTVTVSS VL: DIQMTQSPSSLSASVGDRVTITCHASQGISGNMGWLQQKPGKAPKGLIYHGANLEDGVPSRFSGSGSGTDFTLTISSLQPEDFATYYCVQYAQFPYTFGGGTKVEIKR
1.88	0.00135	718000	hu6L3H3 (antibody, human IgG1, kappa, V domains shown) VH: EVQLVQSGAEVKKPGASVKVSCKASGYTFTDYYMNWVRQAPGQRLEWIGIINPYSGVTIYNHKFKGRATLTVDKSANTAYMELSSLRSEDTAVYYCARQDSLLDYAMDYWGQGTTVTVSS VL: DIQMTQSPSSLSASVGDRVTITCHASQGISGNMGWLQQKPGKSFKGLIYHGANLEDGVPSRFSGSGSGADYTLTISSLQPEDFATYYCVQYAQFPYTFGGGTKVEIKR
1.59	0.00114	716000	hu6L3H2 (antibody, human IgG1, kappa, V domains shown) VH: EVQLVQSGAEVKKPGASVKVSCKASGYTFTDYYMNWVRQAPGQRLEWMGIINPYSGVTIYNHKFKGRVTLTVDKSANTAYMELSSLRSEDTAVYYCARQDSLLDYAMDYWGQGTTVTVSS VL: DIQMTQSPSSLSASVGDRVTITCHASQGISGNMGWLQQKPGKSFKGLIYHGANLEDGVPSRFSGSGSGADYTLTISSLQPEDFATYYCVQYAQFPYTFGGGTKVEIKR
2.19	0.00155	709000	hu6L2H1 (antibody, human IgG1, kappa, V domains shown) VH: EVQLVQSGAEVKKPGASVKVSCKASGYTFTDYYMNWVRQAPGQRLEWMGIINPYSGVTIYNHKFKGRVTITVDKSASTAYMELSSLRSEDTAVYYCARQDSLLDYAMDYWGQGTTVTVSS VL: DIQMTQSPSSLSASVGDRVTITCHASQGISGNMGWLQQKPGKAPKGLIYHGANLEDGVPSRFSGSGSGADYTLTISSLQPEDFATYYCVQYAQFPYTFGGGTKVEIKR
2.76	0.00224	812000	hu6L1H3 (antibody, human IgG1, kappa, V domains shown) VH: EVQLVQSGAEVKKPGASVKVSCKASGYTFTDYYMNWVRQAPGQRLEWIGIINPYSGVTIYNHKFKGRATLTVDKSANTAYMELSSLRSEDTAVYYCARQDSLLDYAMDYWGQGTTVTVSS VL: DIQMTQSPSSLSASVGDRVTITCHASQGISGNMGWLQQKPGKAPKGLIYHGANLEDGVPSRFSGSGSGTDFTLTISSLQPEDFATYYCVQYAQFPYTFGGGTKVEIKR
1.16	0.00115	985000	hu30L1H7 (antibody, human IgG1, kappa) heavy: not shown light: DIVMTQSPDSLAVSLGERATINCKASENVGYVSWYQQKPGQPPKLLIYGASNRYTGVPDRFSGSGSGTDFTLTISSLQAEDVAVYYCGQSYSYPLTFGQGTKLEIKRTVAAPSVFIFPPSDEQLKSGTASVVCLLNNFYPREAKVQWKVDNALQSGNSQESVTEQDSKDSTYSLSSTLTLSKADYEKHKVYACEVTHQGLSSPVTKSFNRGEC
2.34	0.000981	419000	hu30L1H9 (antibody, human IgG1, kappa, V domains shown) VH: EVRLVQSGAEVKKPGASVKVSCKASGYTFTDYYMNWVRQAPGQSLEWIGIINPYTGDTSYNQKFRGRATLTVDKSASTAYMELSSLRSEDTAVYYCARYHYGPHLEGYFDVWGQGTTVTVSS VL: DIVMTQSPDSLAVSLGERATINCKASENVGYVSWYQQKPGQPPKLLIYGASNRYTGVPDRFSGSGSGTDFTLTISSLQAEDVAVYYCGQSYSYPLTFGQGTKLEIKR
